Measured values published in paper PMC8774053, “Genome-wide association of the metabolic shifts underpinning dark-induced senescence in Arabidopsis” (The Plant Cell, 2021).

Substrate: N[C@@H](Cc1ccc(O)cc1)C(=O)O
Assay: purified protein
Format: biochemical, Arabidopsis thaliana
Conditions: 0-8 mM tyrosine, 100 mM alpha-ketoglutarate, 0.2 mM PLP, 100 mM Tris-HCl pH 8.5, 30 C, 5 min, constant not given in text, figure only

B1: TAT1^A (accession CAM-61) (Arabidopsis thaliana) (protein)
chain: MENGATTTSTITIKGILSLLMESITTEEDEGGKRVISLGMGDPTLYSCFRTTQVSLQAVSDSLLSNKFHGYSPTVGLPQARRAIAEYLSRDLPYKLSQDDVFITSGCTQAIDVALSMLARPRANILLPRPGFPIYELCAKFRHLEVRYVDLLPENGWEIDLDAVEALADENTVALVVINPGNPCGNVYSYQHLMKIAESAKKLGFLVIADEVYGHLAFGSKPFVPMGVFGSIVPVLTLGSLSKRWIVPGWRLGWFVTTDPSGSFKDPKIIERFKKYFDILGGPATFIQAAVPTILEQTDESFFKKTLNSLKNSSDICCDWIKEIPCIDSSHRPEGSMAMMVKLNLSLLEDVSDDIDFCFKLAREESVILLPGTAVGLKNWLRITFAADATSIEEAFKRIKCFYLRHAKTQYPTI
  Km: 0.41 ± 0.03 mM
  kcat: 45.85 ± 0.88 s⁻¹

B2: TAT1 (Col-0, At5g53970.1; positive control) (Arabidopsis thaliana) (protein)
chain: MENGATTTSTITIKGILSLLMESITTEEDEGGKRVISLGMGDPTLYSCFRTTQVSLQAVSDSLLSNKFHGYSPTVGLPQARRAIAEYLSRDLPYKLSQDDVFITSGCTQAIDVALSMLARPRANILLPRPGFPIYELCAKFRHLEVRYVDLLPENGWEIDLDAVEALADENTVALVVINPGNPCGNVYSYQHLMKIAESAKKLGFLVIADEVYGHLAFGSKPFVPMGVFGSIVPVLTLGSLSKRWIVPGWRLGWFVTTDPSGSFKDPKIIERFKKYFDILGGPATFIQAAVPTILEQTDESFFKKTLNSLKNSSDICCDWIKEIPCIDSSHRPEGSMAMMVKLNLSLLEDVSDDIDFCFKLAREESVILLPGTAVGLKNWLRITFAADATSIEEAFKRIKCFYLRHAKTQYPTI
  Km: 0.39 ± 0.06 mM
  kcat: 47.84 ± 1.72 s⁻¹
